Reference: patent US7879563B2, “Method of screening for a carnitine transporter agonist or antagonist and its uses” (Sanofi-Aventis Deutschland GmbH, priority 2004, dated 2011)

Substrate: C[N+](C)(C)C[C@H](O)CC(=O)[O-]
Assay: Tracer flux transport measurement in Xenopus laevis oocytes injected with cRNA comprising SEQ ID NO: 4
Assay type: cell-based, human
Details: other: concentration dependency of L-carnitine transport, Michaelis-Menten, uptake measured for 1 hour, FIG. 2
Experimental: The transport measurements of radioactively labeled compounds were executed using Xenopus laevis oocytes in the so-called “tracer flux method”, wherein the transport rate of substrates across the oocyte membrane into the cytosol is determined.
A Xenopus laevis oocyte was injected with a cRNA molecule comprising SEQ ID NO: 4.
Injected oocytes were kept in the culture medium ORi comprising gentamycin (50 mg/L) at 18° C. until the measurement of substrate uptake. Injured, acutely altered or later heavily damaged cells were discarded.
After 72 hours the oocyte was used for screening for a carnitine transporter agonist or antagonist. […]
The oocytes were washed four times in 15 ml ice cold ORi. […] The radioactivity of the lysates was determined in a liquid scintillation counter comprising a correction for the luminescence and an external standard. Each vial was counted for 5 minutes. […]
For the determination of concentration-dependent substrate uptake serial dilutions of the investigated substrate were prepared and the radioactivity was distributed, such that in each reaction mixture between 10000 and 20000 cpm were counted in the supernatant. For the KM determination the substrate uptake was measured for 1 hour. […] The transport rates were calculated and graphically plotted against the substrate concentration and adapted mathematically according to the Michaelis-Menten equation.

B1: carnitine transporter comprising the amino acid sequence SEQ ID NO: 1 (Homo sapiens) (protein)
chain: MVRLVLPNPGLDARIPSLAELETIEQEEASSRPKWDNKAQYMLTCLGFCVGLGNVWRFPYLCQSHGGGAFMIPFLILLVLEGIPLLYLEFAIGQRLRRGSLGVWSSIHPALKGLGLASMLTSFMVGLYYNTIISWIMWYLFNSFQEPLPWSDCPLNENQTGYVDECARSSPVDYFWYRETLNISTSISDSGSIQWWMLLCLACAWSVLYMCTIRGIETTGKAVYITSTLPYVVLTIFLIRGLTLKGATNGIVFLFTPNVTELAQPDTWLDAGAQVFFSFSLAFGGLISFSSYNSVHNNCEKDSVIVSIINGFTSVYVAIVVYSVIGFRATQRYDDCFSTNILTLINGFDLPEGNVTQENFVDMQQRCNASDPAAYAQLVFQTCDINAFLSEAVEGTGLAFIVFTEAITKMPLSPLWSVLFFIMLFCLGLSSMFGNMEGVVVPLQDLRVIPPKWPKEVLTGLICLGTFLIGFIFTLNSGQYWLSLLDSYAGSIPLLIIAFCEMFSVVYVYGVDRFNKDIEFMIGHKPNIFWQVTWRVVSPLLMLIIFLFFFVVEVSQELTYSIWDPGYEEFPKSQKISYPNWVYVVVVIVAGVPSLTIPGYAIYKLIRNHCQKPGDHQGLVSTLSTASMNGDLKY
notes: expressed in transfected cells; host or cells: Xenopus laevis oocytes injected with cRNA
- Km: 15 µM
